# How the values were obtained:
# [1] = molecular target: T1, RPA (human heterotrimer) (human, UniProt P27694;P15927;P35244 1-616;1-270;1-121); assay: EMSA
# [2] = molecular target: T1, RPA (human heterotrimer); assay: EMSA; remark: listed apart in the source
# [3] = molecular target: T1, RPA (human heterotrimer); assay: pull-down
# [4] = molecular target: SSB (Escherichia coli, UniProt P0AGE0 1-178); assay: pull-down
# Chain of SSB (P0AGE0 whole entry): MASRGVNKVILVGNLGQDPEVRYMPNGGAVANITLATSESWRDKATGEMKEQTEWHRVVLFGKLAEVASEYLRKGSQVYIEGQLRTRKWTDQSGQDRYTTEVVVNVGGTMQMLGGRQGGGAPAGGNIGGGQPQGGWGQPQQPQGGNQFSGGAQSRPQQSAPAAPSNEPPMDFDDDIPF
# T1 sequence (P27694 whole entry, chain 1 of 3): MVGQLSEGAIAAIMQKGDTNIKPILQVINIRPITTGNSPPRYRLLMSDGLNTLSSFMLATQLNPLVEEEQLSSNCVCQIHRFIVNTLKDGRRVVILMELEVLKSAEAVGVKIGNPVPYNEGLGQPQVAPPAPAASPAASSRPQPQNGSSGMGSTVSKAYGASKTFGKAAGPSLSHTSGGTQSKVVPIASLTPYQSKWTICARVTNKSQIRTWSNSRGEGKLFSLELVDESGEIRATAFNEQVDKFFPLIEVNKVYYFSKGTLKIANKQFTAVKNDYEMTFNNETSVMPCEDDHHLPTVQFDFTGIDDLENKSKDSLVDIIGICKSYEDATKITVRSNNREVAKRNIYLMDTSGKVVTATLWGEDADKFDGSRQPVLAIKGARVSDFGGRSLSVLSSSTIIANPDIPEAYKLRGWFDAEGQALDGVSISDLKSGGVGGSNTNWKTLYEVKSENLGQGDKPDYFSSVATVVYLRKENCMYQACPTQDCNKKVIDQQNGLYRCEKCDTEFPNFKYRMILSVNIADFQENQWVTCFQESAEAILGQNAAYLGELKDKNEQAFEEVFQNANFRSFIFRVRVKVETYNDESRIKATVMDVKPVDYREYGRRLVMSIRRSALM
# T1 sequence (P15927 whole entry, chain 2 of 3): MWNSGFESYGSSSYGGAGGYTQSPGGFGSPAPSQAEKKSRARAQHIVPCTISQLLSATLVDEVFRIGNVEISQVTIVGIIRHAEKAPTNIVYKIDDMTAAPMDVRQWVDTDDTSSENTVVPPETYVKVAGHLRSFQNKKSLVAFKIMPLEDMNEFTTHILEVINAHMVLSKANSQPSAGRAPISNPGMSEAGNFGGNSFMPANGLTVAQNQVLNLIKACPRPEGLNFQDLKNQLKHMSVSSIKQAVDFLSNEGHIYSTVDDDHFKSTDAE
# T1 sequence (P35244 whole entry, chain 3 of 3): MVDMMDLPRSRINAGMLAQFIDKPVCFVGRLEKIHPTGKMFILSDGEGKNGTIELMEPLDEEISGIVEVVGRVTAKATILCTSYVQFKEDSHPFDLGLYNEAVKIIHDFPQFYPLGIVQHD
binder,measurement,setting,value
TTTTTTTTTTTTTTTTTTTTTTTTTTTTTT (ssDNA) [polyT(30) 5' IRDye-700],binding result,[1],binds
dT30/dA30 duplex (dsDNA) DNA 1: TTTTTTTTTTTTTTTTTTTTTTTTTTTTTT DNA 2: AAAAAAAAAAAAAAAAAAAAAAAAAAAAAA,binding result,[2],binds
TTTTTTTTTTTTTTTTTTTTTTTTTTTTTT (ssDNA) [polyT(30) 3' biotin],binding result,[3],binds
same,binding result,[4],binds
